The record followed here is patent US8632989B1, “Mutant insulin degrading enzyme and methods of use” (University of Kentucky Research Foundation, priority 2011, dated 2014).

In test [1] the test system is Saccharomyces cerevisiae. As to the kind of experiment: IDE activity assay in yeast, serial dilution mating test. As to conditions: MATa cells deficient for Axl1p and Ste23p, plasmid-encoded IDE. Type of test: cell-based. As for the experimental part:
Panel A depicts immunoblot of yeast-expressed IDE and IDE^K898A,K899A,S901A. Equivalent percentage amounts of total cellular extracts from yeast containing an empty expression vector or plasmids encoding IDE or the IDE^K898A,K899A,S901A mutant were analyzed by SDS-PAGE and immunoblotting using an IDE-specific antibody. […] An excess of MATa yeast were mixed with decreasing numbers of MATa cells deficient for Axl1p and Step 23p that were transformed with either an empty expression vector or a vector encoding IDE or IDE^K898A,K899A,S901A as indicated. Mating, which leads to colony growth, is dependent on production of mature a-factor pheromone by plasmid-encoded IDE. […] Concentrated samples of a-factor recovered from yeast bearing the indicated expression vector were spotted at the indicated dilutions on a lawn of RC757 MATa cells, which undergo growth arrest upon exposure to a-factor pheromone. […]
The assays take advantage of the ability of IDE, in lieu of the yeast M16 metallopeptidases Axl1p and Step 23p, to participate in the proteolytic maturation of yeast a-factor mating pheromone. […] Growth of diploid colonies, indicative of mating, was scored 3 days after incubation of plates at 30° C. […] Results of mating tests and halo assays were recorded by scanning plates with a Microtek flatbed scanner and importing digitized images into Photoshop and PowerPoint.

Test [2] is described as follows: Fluorescence measurements of TNP-ATP binding, wild type rIDE and distal site mutants. As to conditions: hyperbolic one site binding fit, 20 °C. The method, then: The fluorescence increase on binding of (2,4,6-trinitrophenyl)ATP (TNP-ATP) is plotted for the indicated IDE constructs as a function of ligand concentration. Data were fit to a hyperbolic one site binding mechanism.
Fluorescence emission spectra of 10 μM TNP-ATP in […] Tris-HCl, pH7.4, was measured in the presence of 1.5 μM of each wild type IDE and the indicated IDE distal mutants. Fluorescence spectra were recorded with a λexc=403 nm on a Perkin-Elmer LS55 Luminescence Spectrometer.
Fluorescence measurements of TNP-ATP binding were performed on a Perkin-Elmer LS55 Luminescence Spectrometer. Titrations were monitored at an excitation wavelength of 403 nm and emission wavelength of 547 nm. The temperature of the sample was maintained at 20±0.1° C. by circulating thermostatically controlled water through the cuvette holder. Assays were conducted in 200 μL reaction mixtures containing 50 mM Tris-HCl, pH, 7.4, 10 μM Abz-[…]-EDDnp (SEQ ID NO:3) as substrate, and 0.5 μg wild type rIDE, 2.3 μg rIDE-V3605, 2.0 μg rIDE-I3745 or 1.62 μg rIDEY609F and the indicated concentration of ATP. The fluorescence of TNP-ATP was subtracted from the total fluorescence of enzyme+TNP-ATP to yield specific fluorescence enhancement (ΔF).

B1: IDE: Native rat insulin degrading enzyme (SEQ ID NO:1), expressed as hexahistidine fusion protein in Sf9 insect cells (protein, listed as Rattus norvegicus)
chain: MRNGLVWLLHPALPSTLHSILGARPPPVKRLCGFPKQIYSTMNNPAIQRIEDHIVKSPEDKREYRGLELANGIKVLLISDPTTDKSSAALDVHIGSLSDPPNIPGLSHFCEHMLFLGTKKYPKENEYSQFLSEHAGSSNAFTSGEHTNYYFDVSHEHLEGALDRFAQFFLCPLFDASCKDREVNAVDSEHEKNVMNDAWRLFQLEKATGNPKHPFSKFGTGNKYTLETRPNQEGIDVREELLKFHSTYYSSNLMAICVLGRESLDDLTNLVVKLFSEVENKNVPLPEFPEHPFQEEHLKQLYKIVPIKDIRNLYVTFPIPDLQQYYKSNPGHYLGHLIGHEGPGSLLSELKSKGWVNTLVGGQKEGARGFMFFIINVDLTEEGLLHVEDIILHMFQYIQKLRAEGPQEWVFQECKDLNAVAFRFKDKERPRGYTSKIAGKLHYYPLNGVLTAEYLLEEFRPDLIDMVLDKLRPENVRVAIVSKSFEGKTDRTEQWYGTQYKQEAIPEDVIQKWQNADLNGKFKLPTKNEFIPTNFEILALEKDATPYPALIKDTAMSKLWFKQDDKFFLPKACLNFEFFSPFAYVDPLHCNMAYLYLELLKDSLNEYAYAAELAGLSYDLQNTIYGMYLSVKGYNDKQPILLKKITEKMATFEIDKKRFEIIKEAYMRSLNNFRAEQPHQHAMYYLRLLMTEVAWTKDELKEALDDVTLPRLKAFIPQLLSRLHIEALLHGNITKQAALGVMQMVEDTLIEHAHTKPLLPSQLVRYREVQLPDRGWFVYQRRNEVHNNCGIEIYYQTDMQSTSENMFLELFCQIISEPCFNTLRTKEQLGYIVFSGPRRANGIQGLRFIIQSEKPPHYLESRVEAFLITMEKAIEDMTEEAFQKHIQALAIRRLDKPKKLSAECAKYWGEIISQQYNYDRDNIEVAYLKTLSKDDIIKFYKEMLAVDAPRRHKVSVHVLAREMDSCPVVGEFPSQNDINLSEAPPLPQPEVIHNMTEFKRGLPLFPLVKPHINFMAAKL
modifications: hexahistidine tag; wild-type Insulin Degrading Enzyme (IDE) from rat
Usually Kd stands for the constant that tells how readily two partners part at equilibrium. A higher Kd goes with weaker binding. With B1, the “mating promoted in yeast” value in test [1] was “promoted mating to a greater extent”. The molecule also yielded an equilibrium dissociation constant (Kd) in test [2] of 1000 ± 100 nM.
